± gives the standard deviation of the averaged measurements.
Experiment: total protein half-life in vivo (active degradation + dilution); higher = more stable protein
[1] = E. coli NCM3722 delta-clpP delta-lon delta-hslV, growth: N-lim chemostat, doubling time 6 h
[2] = E. coli NCM3722 delta-clpP, growth: N-lim chemostat, doubling time 6 h
[3] = E. coli NCM3722 delta-hslV, growth: N-lim chemostat, doubling time 6 h
[4] = E. coli NCM3722 delta-smpB, growth: N-lim chemostat, doubling time 6 h
[5] = wild type E. coli NCM3722, growth: C-lim chemostat, doubling time 3 h
[6] = wild type E. coli NCM3722, growth: N-lim chemostat, doubling time 6 h
[7] = wild type E. coli NCM3722, growth: N-lim chemostat, doubling time 12 h
[8] = wild type E. coli NCM3722, growth: P-lim chemostat, doubling time 6 h
[9] = wild type E. coli NCM3722, growth: P-lim chemostat, doubling time 12 h
[10] = E. coli NCM3722 delta-lon, growth: N-lim chemostat, doubling time 6 h
[11] = wild type E. coli NCM3722, growth: C-lim chemostat, doubling time 6 h
[12] = wild type E. coli NCM3722, growth: C-lim chemostat, doubling time 12 h

Sequence	total protein half-life in vivo [1]	total protein half-life in vivo [2]	total protein half-life in vivo [3]	total protein half-life in vivo [4]	total protein half-life in vivo [5]	total protein half-life in vivo [6]	total protein half-life in vivo [7]	total protein half-life in vivo [8]	total protein half-life in vivo [9]	total protein half-life in vivo [10]	total protein half-life in vivo [11]	total protein half-life in vivo [12]
MDLQHWQAQFENWLKNHHQHQDAAHDVCHFRRVWATAQKLAADDDVDMLVILTACYFHDIVSLAKNHPQRQRSSILAAEETRRLLREEFEQFPAEKIEAVCHAIAAHSFSAQIAPLTTEAKIVQDADRLEALGAIGLARVFAVSGALGVALFDGEDPFAQHRPLDDKRYALDHFQTKLLKLPQTMQTARGKQLAQHNAHFLVEFMAKLSAELAGENEGVDHKVIDAFSSAG	4.36 ± 0.052 h	3.48 ± 0.37 h	2.72 h	2.92 ± 0.03 h	2.09 ± 0.078 h	2.29 h	3.19 h	2.83 ± 0.28 h	4.67 ± 0.13 h			
MDLRRFITLKTVVEEGSFLRASQKLCCTQSTVTFHIQQLEQEFSVQLFEKIGRRMCLTREGKKLLPHIYELTRVMDTLREAAKKESDPDGELRVVSGETLLSYRMPQVLQRFRQRAPKVRLSLQSLNCYVIRDALLNDEADVGVFYRVGNDDALNRRELGEQSLVLVASPQIADVDFTEPGRHNACSFIINEPQCVFRQIFESTLRQRRITVENTIELISIESIKRCVAANIGVSYLPRFAVAKELECGELIELPFGEQSQTITAMCAHHAGKAVSPAMHTFIQCVEESFVAG	5.31 ± 0.83 h	> 8 h	4.13 h	3.41 h		4.37 ± 0.49 h	6.51 h	5.85 h	7.91 h	4.83 h	4.86 h	8.259 ± 0.077 h
MDLSLLKALSEADAIASSEQEVRQILLEEADRLQKEVRFDGLGSVLIRLNESTGPKVMICAHMDEVGFMVRSISREGAIDVLPVGNVRMAARQLQPVRITTREECKIPGLLDGDRQGNDVSAMRVDIGARSYDEVMQAGIRPGDRVTFDTTFQVLPHQRVMGKAFDDRLGCYLLVTLLRELHDAELPAEVWLVASSSEEVGLRGGQTATRAVSPDVAIVLDTACWAKNFDYGAANHRQIGNGPMLVLSDKSLIAPPKLTAWVETVAAEIGVPLQADMFSNGGTDGGAVHLTGTGVPTVVMGPATRHGHCAASIADCRDILQMQQLLSALIQRLTRETVVQLTDFR	5.79 h				2.18 h							
MDNDKIDQHSDEIEVESEEKERGKKIEIDEDRLPSRAMAIHEHIRQDGEKELERDAMALLWSAIAAGLSMGASLLAKGIFQVELEGVPGSFLLENLGYTFGFIIVIMARQQLFTENTVTAVLPVMQKPTMSNVGLLIRLWGVVLLGNILGTGIAAWAFEYMPIFNEETRDAFVKIGMDVMKNTPSEMFANAIISGWLIATMVWMFPAAGAAKIVVIILMTWLIALGDTTHIVVGSVEILYLVFNGTLHWSDFIWPFALPTLAGNICGGTFIFALMSHAQIRNDMSNKRKAEARQKAERAENIKKNYKNPA	6.19 ± 0.79 h	5.38 ± 0.26 h	5.3 h	6.11 ± 1.4 h	3.47 h	5.75 ± 1.1 h	13.5 ± 1.3 h	6.29 ± 0.45 h	12.6 ± 0.066 h	5.46 h	5.51 ± 0.23 h	11.5 ± 1.9 h
MDNRGEFLNNVAQALGRPLRLEPQAEDAPLNNYANERLTQLNQQQRCDAFIQFASDVMLTRCELTSEAKAAEAAIRLCKELGDQSVVISGDTRLEELGISERLQQECNAVVWDPAKGAENISQAEQAKVGVVYAEYGLTESGGVVLFSAAERGRSLSLLPEYSLFILRKSTILPRVAQLAEKLHQKAQAGERMPSCINIISGPSSTADIELIKVVGVHGPVKAVYLIIEDC	4.84 ± 0.23 h	1.46 h	1.64 h	1.78 ± 0.043 h	2.33 ± 0.14 h		2.49 h	2.13 h		2.67 h	3.75 ± 0.5 h	5.23 ± 0.45 h
MDQFECINVADAHQKLQEKEAVLVDIRDPQSFAMGHAVQAFHLTNDTLGAFMRDNDFDTPVMVMCYHGNSSKGAAQYLLQQGYDVVYSIDGGFEAWQRQFPAEVAYGA [P0A6V5]						1.91 h						
MDQVVIFKQIFDKVRNDLNYQWFYSELKRHNVSHYIYYLATENVHIVLKNDNTVLLKGLKNIVSVKFSKDRHLIETTSNKLKSREITFQEYRRNLAKAGVFRWVTNIHEQKRYYYTFDNSLLFTESIQKTTQILPR									5.25 h		4.33 h	
MDSFPAIEIDKVKAWDFRLANINTSECLNVAYGVDANYLDGVGVSITSIVLNNRHINLDFYIIADVYNDGFFQKIAKLAEQNQLRITLYRINTDKLQCLPCTQVWSRAMYFRLFAFQLLGLTLDRLLYLDADVVCKGDISQLLHLGLNGAVAAVVKDVEPMQEKAVSRLSDPELLGQYFNSGVVYLDLKKWADAKLTEKALSILMSKDNVYKYPDQDVMNVLLKGMTLFLPREYNTIYTIKSELKDKTHQNYKKLITESTLLIHYTGATKPWHKWAIYPSVKYYKIALENSPWKDDSPRDAKSIIEFKKRYKHLLVQHHYISGIIAGVCYLCRKYYRK	5.91 ± 0.13 h	5.65 ± 0.22 h	5.85 ± 1.1 h	5.17 ± 0.11 h	2.93 ± 0.14 h	6.04 ± 1.2 h	10.3 ± 2.3 h	5.29 ± 0.38 h	9.86 ± 0.11 h	4.71 ± 0.095 h	5.19 ± 0.48 h	9.31 ± 1.8 h
MDTELLKTFLEVSRTRHFGRAAESLYLTQSAVSFRIRQLENQLGVNLFTRHRNNIRLTAAGEKLLPYAETLMSTWQAARKEVAHTSRHNEFSIGASASLWECMLNQWLGRLYQNQDAHTGLQFEARIAQRQSLVKQLHERQLDLLITTEAPKMDEFSSQLLGYFTLALYTSAPSKLKGDLNYLRLEWGPDFQQHEAGLIGADEVPILTTSSAELAQQQIAMLNGCTWLPVSWARKKGGLHTVVDSTTLSRPLYAIWLQNSDKNALIRDLLKINVLDEVY [P0A8R9]	5.38 ± 0.37 h	4.82 ± 0.081 h	4.553 ± 0.02 h	4.1 ± 0.12 h	3.05 ± 0.072 h	4.72 ± 0.46 h	7.65 ± 0.25 h	6.13 ± 0.24 h	11.7 ± 2 h		5.676 ± 0.025 h	9.53 ± 0.73 h
